What was measured:
[1] = target: alpha-synuclein physiologic tetramer (human, UniProt P37840); assay: SPR
[2] = target: alpha-synuclein sonicated fibrils (human, UniProt P37840); assay: SPR
alpha-synuclein oligomer = alpha-synuclein oligomer (human, UniProt P37840); assay: SPR
alpha-synuclein monomer = alpha-synuclein monomer (human, UniProt P37840); assay: SPR
beta-synuclein monomer = beta-synuclein monomer (human, UniProt Q16143); assay: ELISA
gamma-synuclein monomer = gamma-synuclein monomer (human, UniProt O76070); assay: ELISA
Chain of gamma-synuclein monomer (O76070 whole entry): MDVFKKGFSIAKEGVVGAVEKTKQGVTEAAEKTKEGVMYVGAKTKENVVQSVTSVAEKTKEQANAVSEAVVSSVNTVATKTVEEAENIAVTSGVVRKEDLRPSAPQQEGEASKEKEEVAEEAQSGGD

Chain of beta-synuclein monomer (Q16143 whole entry): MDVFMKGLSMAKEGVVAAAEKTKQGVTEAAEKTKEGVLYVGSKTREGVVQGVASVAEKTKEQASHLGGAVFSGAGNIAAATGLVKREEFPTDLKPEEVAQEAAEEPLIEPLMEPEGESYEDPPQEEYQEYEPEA

binding result [1]	Kd [2] [nM]	Kd (alpha-synuclein oligomer) [nM]	binding result (alpha-synuclein monomer)	binding result (beta-synuclein monomer)	binding result (gamma-synuclein monomer)	Binder
no binding	8	985	no binding	–	–	12B12 (antibody, V domains shown) VH: EVQLQQSGAELVKPGASVKLSCTASGFNIKDTYIHWVKQRPEQGLEWIGRIDPANGNTNYDPKFQDKATITADTSSNTAYLQFSSLTSEDTAVYYCSNWDYFDYWGQGTTLTVSS VL: not shown
no binding	9	431	no binding	no binding	no binding	2E9 (antibody, V domains shown) VH: EVKLLESGGGLVQPGGSLKLSCAASGFDFSRYWMNWVRQAPGKGLEWIGEINPHSSTINYAPSLKDKFIISRDNAKNTLYLQMSKVRSEDTALYYCGRGDYVDYWGLGTTLTVSS VL: DIVMSQSPSSLAVSVGEKVTMSCKSSQSLLYSRNQKNYLAWYQQKPGQSPKLLIYWASTRESGVPDRFTGSGSGTDFTLTISSVKADDLAVYYCQQYYSYPRTFGGGTKLEIK
no binding	20	1610	no binding	–	–	12G1 (antibody, V domains shown) VH: QIQLVQSGPELRKPGETVRISCKASGYTFTTAGMQWVQKMPGKGLKWIGWINTHSGVPKYAEDFKGRFAFSLETSASTAYLQISNLKNEDTATYFCARTSWAPYWGQGTLVTVSA VL: not shown

— patent US20250346655 (published 2025)
